Data: the supplement of paper PMC7125110
± gives the standard error. Fewer inactive variants are shown than the library holds.

B1: glmS ribozyme (parent)
chain: AUAAAAGCGCCAGAACUACAGAAAUGUAGUUGACGAGGAGGAGGUUUAUCGAAUUUUCGGCGGAUGCCUCCAAA

How the values were obtained:
Conditions in all cases: with glucosamine-6-phosphate
[1] = variants of: B1; experiment: self-cleavage kobs at 40 uM GlcN6P; higher = faster cleavage; RNA array
Method in brief: (§1)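 Barcoded glmS ribozyme variants on sequenced MiSeq chips were transcribed in situ by E. coli RNA polymerase and tracked through a hybridised Cy3 probe at 37 °C. Glucosamine-6-phosphate (40 μM to 10 mM) in HEPES/KCl/Mg(OAc)2 buffer was flowed in, and tiles were imaged over ~14 h. Signals were normalised to baseline and to non-cleaving reference variants; per-tile medians were fit to one- or two-exponential decays to give kobs. kcat and KM came from weighted Michaelis–Menten fits across concentrations.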

[2] = variants of: B1; experiment: self-cleavage kobs at 10000 uM GlcN6P; higher = faster cleavage; RNA array
Method in brief: as §1

[3] = variants of: B1; experiment: self-cleavage kobs at 160 uM GlcN6P; higher = faster cleavage; RNA array
Method in brief: as §1

[4] = variants of: B1; experiment: self-cleavage kobs at 640 uM GlcN6P; higher = faster cleavage; RNA array
Method in brief: as §1

[5] = variants of: B1; experiment: self-cleavage kobs at 2500 uM GlcN6P; higher = faster cleavage; RNA array
Method in brief: as §1

Variant	self-cleavage kobs at 40 uM GlcN6P [1] [s⁻¹]	self-cleavage kobs at 10000 uM GlcN6P [2] [s⁻¹]	self-cleavage kobs at 160 uM GlcN6P [3] [s⁻¹]	self-cleavage kobs at 640 uM GlcN6P [4] [s⁻¹]	self-cleavage kobs at 2500 uM GlcN6P [5] [s⁻¹]
G13A G37U A39G G41C A42C G43A	< 1e-05	< 1e-05	–	–	–
A14G A15C G41U C58U	< 1e-05	< 1e-05	–	–	–
G13C G44U	< 1e-05	< 1e-05	< 1e-05	< 1e-05	< 1e-05
A14G G44C C61A C68G	< 1e-05	–	–	–	–
A14U A39G G44A C50A C71A	< 1e-05	< 1e-05	–	–	< 1e-05
A14C A64C G66A	< 1e-05	–	< 1e-05	–	–
G13A A36G G44U A53U	< 1e-05	< 1e-05	–	–	< 1e-05
G13U G35U	< 1e-05	< 1e-05	< 1e-05	< 1e-05	< 1e-05
G13U U56A G59U	< 1e-05	–	–	–	–
G13A G62A	< 1e-05	< 1e-05	< 1e-05	< 1e-05	< 1e-05
A14U C34G A42U U45C A53C	< 1e-05	< 1e-05	–	–	–
A12U U55A	0.00252 ± 0.00039	0.0587 ± 0.02	0.00433 ± 0.0018	0.0231 ± 0.0089	–
A15C U69C	0.000108 ± 2.5e-05	0.00087 ± 0.00022	–	0.000226 ± 8.5e-05	0.000165 ± 4.4e-05
A12C U57A G62A	< 1e-05	–	–	–	–
G13U A52C	< 1e-05	< 1e-05	–	–	< 1e-05
A15G G29A G63U	< 1e-05	< 1e-05	–	–	–
A15C A33C C50G C61G	0.000147 ± 3.9e-05	0.000196 ± 3.4e-05	–	–	–
A12G G62A	< 1e-05	< 1e-05	–	< 1e-05	–
A12G G62U	< 1e-05	–	–	< 1e-05	–
G13C A39U G59U	< 1e-05	–	–	–	–
A14C G60U	< 1e-05	< 1e-05	< 1e-05	< 1e-05	–
A15G G32U U56G G60U	< 1e-05	–	–	–	–
A12G U27C G29U	< 1e-05	–	–	< 1e-05	< 1e-05
A12U U47C G60A	< 1e-05	< 1e-05	–	–	–
